Assay results as given in the supplement of paper PMC10724198.
± gives the standard deviation of the averaged measurements.

System: Saccharomyces cerevisiae
Experiment: protein stability index of tFT-peptide fusion (C-terminal peptide) (PSI (0-1 scale)); higher = more stable (slower turnover)
Details: genetic background: wild type; temperature: 30 C
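Note: PSI is a weighted mean of sequencing reads over stability bins, variants kept only with over 10 reads, mCherry proximal and sfGFP distal, peptide attached via GGGS linker.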

Row | Sequence | protein stability index
1 | SEVGLSFGLVSF | 0.719 ± 0.032
2 | SEYHGRAQKTGP | 0.744 ± 0.034
3 | SFAHIVSLPVSM | 0.657 ± 0.037
4 | SFAQANRYLTSL | 0.699 ± 0.012
5 | SFATPCCYPLHF | 0.713 ± 0.037
6 | SFCACDRYRIGV | 0.727 ± 0.038
7 | SFGGRMSVPTCC | 0.594 ± 0.035
8 | SFGSAANSRAYI | 0.749 ± 0.042
9 | SFITFGGWLGGM | 0.705 ± 0.14
10 | SFLGLDDEICLR | 0.716 ± 0.044
11 | SFLISPFSLFSS | 0.771 ± 0.051
12 | SFLPHALPATAS | 0.682 ± 0.07
13 | SFPFSCSSSVTH | 0.72 ± 0.055
14 | SFPPVSSLSFSP | 0.707 ± 0.048
15 | SFSAFRCDPAEM | 0.676 ± 0.011
16 | SFSLPLSPPSFF | 0.721 ± 0.058
17 | SFSPSVLSREVS | 0.66 ± 0.066
18 | SFSQTFSSLSSP | 0.702 ± 0.054
19 | SFVGPFCLTLSI | 0.596 ± 0.092
20 | SFVQLNGAVDLA | 0.717 ± 0.031
21 | SGAADGDADRHP | 0.721 ± 0.029
22 | SGAGGGGWWGGV | 0.731 ± 0.011
23 | SGAGVNWGVGGG | 0.728 ± 0.019

Row | Sequence | protein stability index
24 | SGATVGVLCFAS | 0.58 ± 0.006
25 | SGCCCGSDVYIG | 0.6905 ± 0.0055
26 | SGCVLCLCCYMV | 0.666 ± 0.015
27 | SGCWREVEVGFG | 0.737 ± 0.059
28 | SGFLAKNIKQLC | 0.578 ± 0.042
29 | SGFQAPGSVASE | 0.623 ± 0.014
30 | SGFQIRVPVFMG | 0.619 ± 0.0095
31 | SGFVQRLHVICN | 0.5706 ± 0.0011
32 | SGGCVLRLWGFV | 0.6853 ± 0.0019
33 | SGHRLGRGQGQR | 0.67 ± 0.02
34 | SGIYQTTSYIKI | 0.7505 ± 0.0029
35 | SGLFPLSPKPCP | 0.619 ± 0.11
36 | SGLGRETHGSYS | 0.66 ± 0.012
37 | SGMGGCRKGFEG | 0.717 ± 0.011
38 | SGPRVCPGMHWQ | 0.651 ± 0.013
39 | SGPYPVGKQRSE | 0.649 ± 0.05
40 | SGRGWILCAYRV | 0.632 ± 0.024
41 | SGRSGECEGSWD | 0.662 ± 0.13
42 | SGRTQPRGKHNA | 0.683 ± 0.016
43 | SGRVELGVVGGG | 0.695 ± 0.04
44 | SGSCPSSTSATT | 0.732 ± 0.057
45 | SGSGVLVGCLGS | 0.68 ± 0.038
46 | SGSVALWVCSVV | 0.5878 ± 0.0056

Row | Sequence | protein stability index
47 | SGTVRSTPPHPP | 0.664 ± 0.0072
48 | SGVAAPVRPRSV | 0.854 ± 0.11
49 | SGVAYAVYLVFR | 0.472 ± 0.047
50 | SGVFARIKRTVV | 0.489 ± 0.072
51 | SGVGCLVFGRGF | 0.645 ± 0.046
52 | SGVGPGNPPRPG | 0.689 ± 0.011
53 | SGVPGGSVGVPG | 0.661 ± 0.028
54 | SGVVSASFVVLD | 0.677 ± 0.01
55 | SGWEVAGGCDNK | 0.692 ± 0.0021
56 | SGWRCSVAVLQV | 0.592 ± 0.033
57 | SGYYTRVFICEV | 0.618 ± 0.025
58 | SHESRPNLGCIY | 0.678 ± 0.026
59 | SHFPPPSTPPVL | 0.713 ± 0.015
60 | SHLPPRSPPVPS | 0.6825 ± 0.0051
61 | SHPPPPPSPPPR | 0.6922 ± 0.0051
62 | SICSIRPFSDLP | 0.683 ± 0.015
63 | SIGYDLFTKDKI | 0.789 ± 0.13
64 | SIIRYNKSATIT | 0.667 ± 0.047
65 | SIIYKRKKGRRW | 0.714 ± 0.039
66 | SILTALGEVLLV | 0.665 ± 0.013
67 | SILVAGVSAGRC | 0.669 ± 0.021
68 | SIMSVLPYCSCS | 0.708 ± 0.06
69 | SIQCHNTKKFYE | 0.715 ± 0.032

Row | Sequence | protein stability index
70 | SISSVFCTGRCH | 0.721 ± 0.19
71 | SIVAWGWPAASE | 0.85 ± 0.19
72 | SIVIGGSWGRSW | 0.711 ± 0.052
73 | SIVSQGISDLGR | 0.656 ± 0.046
74 | SIYIEKERKMIV | 0.686 ± 0.025
75 | SKGECYSETDVA | 0.684 ± 0.018
76 | SKKNKPAQRRPH | 0.729 ± 0.026
77 | SKKRKEKRTKEW | 0.63 ± 0.083
78 | SKLEREKQNKGY | 0.634 ± 0.021
79 | SKLRKGNSIDDR | 0.625 ± 0.016
80 | SKREYGKEYKRK | 0.656 ± 0.0084
81 | SKSCIVSNVLVY | 0.511 ± 0.014
82 | SKTIRDTYIFKR | 0.816 ± 0.15
83 | SLASCLLRPPLY | 0.693 ± 0.021
84 | SLASYFFHVSHS | 0.7127 ± 0.0064
85 | SLCLPFPSSPPP | 0.677 ± 0.0083
86 | SLDGTVHARRAH | 0.695 ± 0.07
87 | SLDISDCGFCLH | 0.697 ± 0.018
88 | SLDRASPPTSVA | 0.625 ± 0.0007
89 | SLFFGDCNLVRV | 0.7166 ± 0.0036
90 | SLFPPAPPPPRS | 0.641 ± 0.098
91 | SLFRSSHPPRPP | 0.605 ± 0.034
92 | SLFSFSLSLCSP | 0.653 ± 0.06

Row | Sequence | protein stability index
93 | SLFYSPSSVFSF | 0.866 ± 0.13
94 | SLGCLLENRRGL | 0.641 ± 0.015
95 | SLGGFLPPESFV | 0.708 ± 0.049
96 | SLGSRFWGPYPF | 0.679 ± 0.029
97 | SLGVPVVWGLWI | 0.744 ± 0.032
98 | SLILSAGLGFFF | 0.719 ± 0.095
99 | SLKELSYKGTLR | 0.65 ± 0.038
100 | SLLHGVFFWVLT | 0.572 ± 0.013
101 | SLLPLSTPPASP | 0.624 ± 0.0079
102 | SLLRPPHASFSS | 0.688 ± 0.044
103 | SLLSLPPSRAPS | 0.666 ± 0.022
104 | SLLTLVIPTLFS | 0.665 ± 0.0048
105 | SLPDSLPRPPPS | 0.656 ± 0.072
106 | SLPFSPSFLSSF | 0.67 ± 0.015
107 | SLPLIPCPSPPL | 0.751 ± 0.065
108 | SLPLPNTPVPPI | 0.723 ± 0.081
109 | SLPPHPAPPPAA | 0.757 ± 0.014
110 | SLPPLDTPPSSC | 0.73 ± 0.14
111 | SLPPPSSPPPPL | 0.692 ± 0.089
112 | SLPPSRSPSPTL | 0.665 ± 0.13
113 | SLPRPPRPPQSH | 0.677 ± 0.038
114 | SLQPRRGQPVTG | 0.711 ± 0.0078
115 | SLQRLFGRGGMV | 0.643 ± 0.1

Row | Sequence | protein stability index
116 | SLRICGAFPRTF | 0.705 ± 0.0092
117 | SLRLFVPVYPPP | 0.576 ± 0.078
118 | SLRRPPPRSRNG | 0.654 ± 0.048
119 | SLSIFTSFLVLF | 0.598 ± 0.021
120 | SLSLFYFRFFPF | 0.661 ± 0.05
121 | SLSPPSSPLPPP | 0.703 ± 0.053
122 | SLSRSFCRAHRS | 0.722 ± 0.047
123 | SLSVPPRPSSPP | 0.624 ± 0.017
124 | SLVAFAKMANFV | 0.633 ± 0.044
125 | SLWLRLAIPSRY | 0.68862 ± 0.00061
126 | SMASQLSQRGSD | 0.641 ± 0.076
127 | SMFRNSWRKNKS | 0.602 ± 0.012
128 | SMRFLGIKLKKY | 0.648 ± 0.023
129 | SMSEYGLLTMLE | 0.669 ± 0.011
130 | SNERWCGCGLLW | 0.764 ± 0.0097
131 | SNIKEYKSINGR | 0.666 ± 0.02
132 | SNKDLELVSTVC | 0.658 ± 0.002
133 | SNLPVSSLPSLS | 0.6818 ± 0.0048
134 | SNLRSPFPSLPL | 0.714 ± 0.022
135 | SNPGGYCPQGVP | 0.731 ± 0.024
136 | SNRRSSRSLYYM | 0.698 ± 0.033
137 | SNVRSRGAGISM | 0.729 ± 0.087
138 | SPAASPVPLHPR | 0.603 ± 0.15

Row | Sequence | protein stability index
139 | SPAGGPRGGEGV | 0.678 ± 0.075
140 | SPAGGPSGGEGV | 0.674 ± 0.062
141 | SPARPPFPPPPL | 0.72 ± 0.029
142 | SPASIVPTLELA | 0.638 ± 0.024
143 | SPCARPPPFPAR | 0.724 ± 0.034
144 | SPCLLPPPRSSP | 0.737 ± 0.027
145 | SPCRSPPPDLPQ | 0.645 ± 0.1
146 | SPFLTPPPPRPA | 0.682 ± 0.024
147 | SPFPPLPSRPPP | 0.676 ± 0.0097
148 | SPFSPTAPPPPP | 0.718 ± 0.017
149 | SPHPLLSSPPPA | 0.686 ± 0.075
150 | SPIIVCLFDLGF | 0.654 ± 0.037
151 | SPLLFLLPPAAP | 0.692 ± 0.062
152 | SPLLPFPLPPSI | 0.718 ± 0.018
153 | SPLPADSHPLPP | 0.667 ± 0.015
154 | SPLPPPLPPFPP | 0.6171 ± 0.0056
155 | SPLPRPHRGPPP | 0.58 ± 0.054
156 | SPMELEHSSAVP | 0.6605 ± 0.0046
157 | SPPAALLPLFLR | 0.676 ± 0.051
158 | SPPAPLPPPLPR | 0.648 ± 0.025
159 | SPPFLPPLITFP | 0.681 ± 0.023
160 | SPPLPPLGFNPP | 0.6414 ± 0.0025
